Source: PMC8755542, “HELQ is a dual-function DSB repair enzyme modulated by RPA and RAD51” (Nature, 2021)

Key:
HELQ(K365M);RPA-eGFP = HELQ(K365M);RPA-eGFP (human;human, UniProt Q8TDG4;P27694;P15927;P35244 1-1101;1-616;1-270;1-121, K365M|); test: single-molecule oligo capture; capture on RPA-eGFP-coated lambda ssDNA; dwell time 179 s; EMSA: 25 mM Tris-HCl pH 8.0, 2 mM ATP, 2 mM MgCl2, 1 mM DTT, 50 mM NaCl, 0.1 mg/ml BSA, 25 nM DNA, 10 min 37 C (20 min for RAD51 +/- HELQ); single-molecule at room temperature in similar buffer; settings: protein: recombinant;recombinant; tags: C-terminal Flag; N-terminal MBP removed with PreScission;eGFP; copies: 1;1;1;1; label: 5' Cy3; single strand
HELQ(K365M);RPA-eGFP, sequence (P27694 whole entry, chain 2 of 3): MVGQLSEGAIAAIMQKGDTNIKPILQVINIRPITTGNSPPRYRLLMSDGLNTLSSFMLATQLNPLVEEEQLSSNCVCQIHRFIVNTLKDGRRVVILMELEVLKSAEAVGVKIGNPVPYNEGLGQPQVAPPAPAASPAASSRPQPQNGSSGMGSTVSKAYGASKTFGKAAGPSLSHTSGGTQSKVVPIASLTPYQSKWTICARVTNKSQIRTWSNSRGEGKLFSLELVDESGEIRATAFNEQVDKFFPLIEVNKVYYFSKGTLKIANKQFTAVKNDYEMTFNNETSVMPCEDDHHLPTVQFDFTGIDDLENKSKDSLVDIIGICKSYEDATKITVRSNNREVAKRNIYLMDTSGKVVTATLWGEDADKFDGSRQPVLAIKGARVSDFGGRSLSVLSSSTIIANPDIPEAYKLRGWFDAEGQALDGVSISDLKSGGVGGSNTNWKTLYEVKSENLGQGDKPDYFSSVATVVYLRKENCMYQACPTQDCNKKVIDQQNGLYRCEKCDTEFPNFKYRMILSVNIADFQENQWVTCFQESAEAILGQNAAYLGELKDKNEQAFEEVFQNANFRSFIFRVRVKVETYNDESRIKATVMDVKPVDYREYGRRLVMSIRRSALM
HELQ(K365M);RPA-eGFP, sequence (P15927 whole entry, chain 3 of 3): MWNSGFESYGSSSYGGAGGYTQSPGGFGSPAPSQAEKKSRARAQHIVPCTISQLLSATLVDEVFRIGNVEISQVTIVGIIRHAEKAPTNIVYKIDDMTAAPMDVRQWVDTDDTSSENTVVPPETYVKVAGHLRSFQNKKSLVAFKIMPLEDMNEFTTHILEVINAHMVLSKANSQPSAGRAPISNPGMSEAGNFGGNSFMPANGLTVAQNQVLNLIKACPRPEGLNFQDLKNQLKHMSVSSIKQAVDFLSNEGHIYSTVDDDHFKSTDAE
HELQ(K365M);RPA-eGFP, sequence (P35244 whole entry, chain 4 of 3): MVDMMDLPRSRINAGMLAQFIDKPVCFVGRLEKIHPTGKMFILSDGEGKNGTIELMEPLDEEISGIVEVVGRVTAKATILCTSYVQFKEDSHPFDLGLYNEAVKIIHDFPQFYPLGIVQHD

HELQ;RPA-eGFP [1] = target: T1, HELQ;RPA-eGFP (human;human, UniProt Q8TDG4;P27694;P15927;P35244 1-1101;1-616;1-270;1-121, |); test: single-molecule oligo capture; capture on RPA-eGFP-coated lambda ssDNA; dwell time 134 s; EMSA: 25 mM Tris-HCl pH 8.0, 2 mM ATP, 2 mM MgCl2, 1 mM DTT, 50 mM NaCl, 0.1 mg/ml BSA, 25 nM DNA, 10 min 37 C (20 min for RAD51 +/- HELQ); single-molecule at room temperature in similar buffer; settings: protein: recombinant;recombinant; tags: C-terminal Flag; N-terminal MBP removed with PreScission;eGFP; copies: 1;1;1;1; label: 5' Cy3; single strand
T1 sequence (P27694 whole entry, chain 2 of 3): as the sequence (P27694 whole entry, chain 2 of 3) above
T1 sequence (P15927 whole entry, chain 3 of 3): as the sequence (P15927 whole entry, chain 3 of 3) above
T1 sequence (P35244 whole entry, chain 4 of 3): as the sequence (P35244 whole entry, chain 4 of 3) above

HELQ;RPA-eGFP [2] = target: T1, HELQ;RPA-eGFP; test: single-molecule oligo capture; capture on RPA-eGFP-coated lambda ssDNA; EMSA: 25 mM Tris-HCl pH 8.0, 2 mM ATP, 2 mM MgCl2, 1 mM DTT, 50 mM NaCl, 0.1 mg/ml BSA, 25 nM DNA, 10 min 37 C (20 min for RAD51 +/- HELQ); single-molecule at room temperature in similar buffer; settings: protein: recombinant;recombinant; tags: C-terminal Flag; N-terminal MBP removed with PreScission;eGFP; copies: 1;1;1;1; label: Cy3 (5' in oligo list, 3' in capture assay); single strand
HELQ;RPA-mRFP1 = HELQ;RPA-mRFP1 (human;human, UniProt Q8TDG4;P27694;P15927;P35244 1-1101;1-616;1-270;1-121, |); test: pull-down; via biotin-dT43 on streptavidin beads; 82 nM RPA, fusion not stated; EMSA: 25 mM Tris-HCl pH 8.0, 2 mM ATP, 2 mM MgCl2, 1 mM DTT, 50 mM NaCl, 0.1 mg/ml BSA, 25 nM DNA, 10 min 37 C (20 min for RAD51 +/- HELQ); single-molecule at room temperature in similar buffer; settings: protein: recombinant;recombinant; tags: C-terminal Flag; N-terminal MBP removed with PreScission;mRFP1; copies: 1;1;1;1; label: Cy3 (5' in oligo list, 3' in capture assay); single strand
HELQ;RPA-mRFP1, sequence (P27694 whole entry, chain 2 of 3, the tested form may be a part): as the sequence (P27694 whole entry, chain 2 of 3) above
HELQ;RPA-mRFP1, sequence (P15927 whole entry, chain 3 of 3, the tested form may be a part): as the sequence (P15927 whole entry, chain 3 of 3) above
HELQ;RPA-mRFP1, sequence (P35244 whole entry, chain 4 of 3, the tested form may be a part): as the sequence (P35244 whole entry, chain 4 of 3) above

HELQ(K365M);RPA-mRFP1 = HELQ(K365M);RPA-mRFP1 (human;human, UniProt Q8TDG4;P27694;P15927;P35244 1-1101;1-616;1-270;1-121, K365M|); test: pull-down; via biotin-dT43 on streptavidin beads; RPA fusion not stated; EMSA: 25 mM Tris-HCl pH 8.0, 2 mM ATP, 2 mM MgCl2, 1 mM DTT, 50 mM NaCl, 0.1 mg/ml BSA, 25 nM DNA, 10 min 37 C (20 min for RAD51 +/- HELQ); single-molecule at room temperature in similar buffer; settings: protein: recombinant;recombinant; tags: C-terminal Flag; N-terminal MBP removed with PreScission;mRFP1; copies: 1;1;1;1; label: Cy3 (5' in oligo list, 3' in capture assay); single strand
HELQ(K365M);RPA-mRFP1, sequence (P27694 whole entry, chain 2 of 3, the tested form may be a part): as the sequence (P27694 whole entry, chain 2 of 3) above
HELQ(K365M);RPA-mRFP1, sequence (P15927 whole entry, chain 3 of 3, the tested form may be a part): as the sequence (P15927 whole entry, chain 3 of 3) above
HELQ(K365M);RPA-mRFP1, sequence (P35244 whole entry, chain 4 of 3, the tested form may be a part): as the sequence (P35244 whole entry, chain 4 of 3) above

HELQ(K365M) [3] = target: T2, HELQ(K365M) (human, UniProt Q8TDG4 1-1101, K365M); test: EMSA; 2 mM ATP, 2 mM Mg2+; EMSA: 25 mM Tris-HCl pH 8.0, 2 mM ATP, 2 mM MgCl2, 1 mM DTT, 50 mM NaCl, 0.1 mg/ml BSA, 25 nM DNA, 10 min 37 C (20 min for RAD51 +/- HELQ); single-molecule at room temperature in similar buffer; settings: protein: recombinant, tags: C-terminal Flag, N-terminal MBP removed with PreScission
T2 sequence: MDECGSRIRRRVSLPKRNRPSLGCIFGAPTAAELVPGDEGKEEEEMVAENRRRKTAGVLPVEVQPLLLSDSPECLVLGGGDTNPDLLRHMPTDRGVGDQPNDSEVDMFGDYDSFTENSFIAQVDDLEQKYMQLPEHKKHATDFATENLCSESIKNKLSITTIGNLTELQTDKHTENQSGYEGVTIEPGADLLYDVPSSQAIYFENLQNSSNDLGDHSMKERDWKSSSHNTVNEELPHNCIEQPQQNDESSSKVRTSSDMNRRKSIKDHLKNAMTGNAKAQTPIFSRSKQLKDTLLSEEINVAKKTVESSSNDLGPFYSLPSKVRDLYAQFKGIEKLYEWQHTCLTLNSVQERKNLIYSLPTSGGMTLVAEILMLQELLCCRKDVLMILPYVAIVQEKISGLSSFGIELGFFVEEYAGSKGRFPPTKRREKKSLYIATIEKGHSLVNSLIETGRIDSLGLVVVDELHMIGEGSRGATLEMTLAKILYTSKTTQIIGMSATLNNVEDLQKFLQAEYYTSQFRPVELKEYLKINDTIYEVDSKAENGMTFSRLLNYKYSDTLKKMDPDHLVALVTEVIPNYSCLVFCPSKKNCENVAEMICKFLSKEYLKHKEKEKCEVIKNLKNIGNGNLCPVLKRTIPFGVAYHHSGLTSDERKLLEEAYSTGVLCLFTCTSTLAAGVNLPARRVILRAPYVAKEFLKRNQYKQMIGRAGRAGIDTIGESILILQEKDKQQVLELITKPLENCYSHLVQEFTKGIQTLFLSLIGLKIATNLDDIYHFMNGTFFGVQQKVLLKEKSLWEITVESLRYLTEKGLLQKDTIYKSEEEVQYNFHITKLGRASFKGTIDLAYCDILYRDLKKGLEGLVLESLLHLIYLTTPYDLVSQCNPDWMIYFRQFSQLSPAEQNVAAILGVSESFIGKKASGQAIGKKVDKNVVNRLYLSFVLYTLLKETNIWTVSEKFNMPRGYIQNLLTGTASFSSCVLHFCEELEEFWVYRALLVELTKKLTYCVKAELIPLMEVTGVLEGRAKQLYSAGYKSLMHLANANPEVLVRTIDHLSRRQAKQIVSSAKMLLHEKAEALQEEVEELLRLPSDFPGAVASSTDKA

[4] = target: T3, HELQ (wild type, purified recombinant human HELQ) (human, UniProt Q8TDG4 1-1101); test: single-molecule imaging (optical tweezers with confocal microscopy, C-Trap); gapped λ-DNA held between beads at constant force of 50 pN; 25 nM Alx–RAD51 with or without 50 nM HELQ or HELQ(K365M) in 1× HELQ buffer (25 mM Tris-HCl pH 8.0, 2 mM MgCl2, 50 mM NaCl), 2 mM ATP, 0.2 mg/ml BSA, 1 mM DTT; room temperature; kymographs of Alx–RAD51; settings: both partners purified
T3 construct: human HELQ helicase; custom HELQ ORF (GeneArt); Eluted from Flag resin with 3xFlag peptide; no removal of the Flag tag is described; also called HELQ WT; WT HELQ; source: Sf9 insect cells, purified (amylose, PreScission cleavage of MBP, anti-Flag resin); not shown: MBP, N-terminal, cleaved
T3 sequence (looked up): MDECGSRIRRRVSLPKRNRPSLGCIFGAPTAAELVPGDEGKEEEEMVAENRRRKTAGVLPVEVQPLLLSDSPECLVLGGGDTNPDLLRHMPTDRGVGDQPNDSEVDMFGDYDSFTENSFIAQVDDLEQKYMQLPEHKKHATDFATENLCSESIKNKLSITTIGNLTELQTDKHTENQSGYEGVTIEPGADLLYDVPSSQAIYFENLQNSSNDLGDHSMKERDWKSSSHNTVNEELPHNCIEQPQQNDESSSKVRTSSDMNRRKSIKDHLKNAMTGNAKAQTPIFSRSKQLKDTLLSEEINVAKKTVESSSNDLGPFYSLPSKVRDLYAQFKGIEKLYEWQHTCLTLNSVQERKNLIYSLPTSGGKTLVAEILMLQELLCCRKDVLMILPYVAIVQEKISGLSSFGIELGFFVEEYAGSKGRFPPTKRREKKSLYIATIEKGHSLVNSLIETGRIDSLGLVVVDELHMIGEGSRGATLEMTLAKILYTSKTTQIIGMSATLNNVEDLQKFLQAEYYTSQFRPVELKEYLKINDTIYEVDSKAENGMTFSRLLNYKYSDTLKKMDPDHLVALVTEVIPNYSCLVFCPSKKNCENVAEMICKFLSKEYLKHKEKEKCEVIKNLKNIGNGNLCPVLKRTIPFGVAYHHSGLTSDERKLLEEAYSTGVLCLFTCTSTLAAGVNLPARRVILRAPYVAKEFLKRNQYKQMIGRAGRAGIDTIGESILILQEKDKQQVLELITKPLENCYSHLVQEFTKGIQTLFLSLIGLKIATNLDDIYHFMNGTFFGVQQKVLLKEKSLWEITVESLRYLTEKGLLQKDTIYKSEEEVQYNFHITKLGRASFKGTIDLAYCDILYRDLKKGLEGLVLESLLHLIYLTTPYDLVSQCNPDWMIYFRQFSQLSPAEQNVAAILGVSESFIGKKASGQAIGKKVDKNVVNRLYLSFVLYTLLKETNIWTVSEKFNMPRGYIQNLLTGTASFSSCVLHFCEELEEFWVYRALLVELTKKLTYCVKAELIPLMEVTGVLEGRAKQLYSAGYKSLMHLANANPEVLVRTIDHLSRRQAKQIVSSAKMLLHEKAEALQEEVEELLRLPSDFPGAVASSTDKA

HELQ(K365M) [5] = target: T4, HELQ(K365M) (human, UniProt Q8TDG4 1-1101, K365M); test: as above; settings: both partners purified
T4 construct: human HELQ helicase with the helicase-dead mutation K365M, made from pFB-MBP-HELQ-Flag by site-directed mutagenesis; also called helicase-dead HELQ; HELQ KM; source: Sf9 insect cells, purified (same procedure as wild-type HELQ); not shown: MBP, N-terminal, cleaved
T4 sequence (looked up): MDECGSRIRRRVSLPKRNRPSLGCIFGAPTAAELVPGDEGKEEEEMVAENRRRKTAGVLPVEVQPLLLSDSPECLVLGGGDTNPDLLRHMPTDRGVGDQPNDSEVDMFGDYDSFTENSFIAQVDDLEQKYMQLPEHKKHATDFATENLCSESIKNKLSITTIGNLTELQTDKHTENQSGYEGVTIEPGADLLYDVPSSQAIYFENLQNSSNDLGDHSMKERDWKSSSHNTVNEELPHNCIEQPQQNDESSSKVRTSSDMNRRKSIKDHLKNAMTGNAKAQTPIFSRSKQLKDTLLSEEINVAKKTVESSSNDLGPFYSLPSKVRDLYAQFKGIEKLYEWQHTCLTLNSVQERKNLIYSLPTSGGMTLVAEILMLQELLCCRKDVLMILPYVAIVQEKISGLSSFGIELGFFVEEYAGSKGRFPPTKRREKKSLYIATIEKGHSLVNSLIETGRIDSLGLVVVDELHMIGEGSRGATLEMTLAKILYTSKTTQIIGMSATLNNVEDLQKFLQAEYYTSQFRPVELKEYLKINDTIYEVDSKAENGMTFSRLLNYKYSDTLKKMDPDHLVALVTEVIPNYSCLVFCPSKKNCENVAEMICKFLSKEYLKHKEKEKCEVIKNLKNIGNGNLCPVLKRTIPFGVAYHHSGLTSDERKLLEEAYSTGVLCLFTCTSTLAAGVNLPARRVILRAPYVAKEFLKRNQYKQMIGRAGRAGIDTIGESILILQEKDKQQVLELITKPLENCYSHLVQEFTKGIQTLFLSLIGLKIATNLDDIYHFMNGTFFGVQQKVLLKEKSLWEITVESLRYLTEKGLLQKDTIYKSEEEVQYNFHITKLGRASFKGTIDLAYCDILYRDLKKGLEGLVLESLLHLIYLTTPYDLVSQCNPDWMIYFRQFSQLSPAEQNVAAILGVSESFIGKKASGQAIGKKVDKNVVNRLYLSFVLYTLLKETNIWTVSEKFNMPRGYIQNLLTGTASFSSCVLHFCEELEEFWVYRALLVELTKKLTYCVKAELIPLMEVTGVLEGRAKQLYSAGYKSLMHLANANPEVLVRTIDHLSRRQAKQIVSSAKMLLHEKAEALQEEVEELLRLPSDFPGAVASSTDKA

B1: lambda4 80-mer (ssDNA)
DNA: CCTGAACGACCAGGCGTCTTCGTTCATCTATCGGATCGCCACACTCACAACAATGAGTGGCAGATATAGCCTGGTGGTTC
binding result (HELQ(K365M);RPA-eGFP): binds | binding result (HELQ;RPA-eGFP [1]): binds

B2: dT79 (ssDNA)
DNA: TTTTTTTTTTTTTTTTTTTTTTTTTTTTTTTTTTTTTTTTTTTTTTTTTTTTTTTTTTTTTTTTTTTTTTTTTTTTTTT
binding result (HELQ;RPA-eGFP [2]): binds | binding result (HELQ;RPA-mRFP1): binds | binding result (HELQ(K365M);RPA-mRFP1): binds

B3: ssDNA (oligo 1) (ssDNA)
DNA: AGCTACCATGCCTGCACGAATTAAGCAATTCGTAATCATGGTCATAGCT
binding result (HELQ(K365M) [3]; label: 5' FITC, single strand 49 nt): binds

B4: dsDNA (oligo 1 + oligo 2) (dsDNA)
DNA 1: AGCTACCATGCCTGCACGAATTAAGCAATTCGTAATCATGGTCATAGCT
DNA 2: AGCTATGACCATGATTACGAATTGCTTAATTCGTGCAGGCATGGTAGCT
binding result (HELQ(K365M) [3]; label: 5' FITC on strand 1, blunt 49 bp): binds

B5: Alx–RAD51 (RAD51(C319S) labelled with Alexa Fluor 488 C5 maleimide) (natural protein, human, UniProt Q06609 1-339, looked up)
chain: MAMQMQLEANADTSVEEESFGPQPISRLEQCGINANDVKKLEEAGFHTVEAVAYAPKKELINIKGISEAKADKILAEAAKLVPMGFTTATEFHQRRSEIIQITTGSKELDKLLQGGIETGSITEMFGEFRTGKTQICHTLAVTCQLPIDRGGGEGKAMYIDTEGTFRPERLLAVAERYGLSGSDVLDNVAYARAFNTDHQTQLLYQASAMMVESRYALLIVDSATALYRTDYSGRGELSARQMHLARFLRMLLRLADEFGVAVVITNQVVAQVDGAAMFAADPKKPIGGNIIAHASTTRLYLRKGRGETRICKIYDSPSLPEAEAMFAINADGVGDAKD
modifications: Alexa Fluor 488 C5 maleimide label (1:1 labelling stoichiometry; labelled residue not given)
notes: human RAD51 recombinase with the mutation C319S; also called RAD51(A488); source: E. coli, purified as WT RAD51, then labelled and separated from free dye (Zeba column)
binding result [4]: binds | binding result (HELQ(K365M) [5]): binds
